B1: Azoarcus group I ribozyme (parent)
chain: GUGCCUUGCGCCGGGAAACCACGCAAGGGAUGGUGUCAAAUUCGGCGAAACCUAAGCGCCCGCCCGGGCGUAUGGCAACGCCGAGCCAAGCUUCGGCGCCUGCGCCGAUGAAGGUGUAGAGACUAGACGGCACCCACCUAAGGCAAACGCUAUGGUGAAGGCAUAGUCCAGGGAGUGGCGAAAGUCACACAAACCGG

Variants of B1 are the subject of the data set. The data set is described as follows: reverse-splicing fitness (ratio to wild type); higher = more active; in vitro selection; Mg2+ level not given. The gist of the method:
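An in vitro group I ribozyme library with randomized positions was T7-transcribed and gel-purified. In triplicate, 10 pmol RNA in EPPS pH 7.5 was reacted with 50 pmoles of a 30-nt RNA substrate for 1 h at 37 °C across several added MgCl2 levels (1–48 mM), then stopped with EDTA. Products were reverse transcribed from a substrate-complementary primer, PCR-amplified and sequenced (HiSeq 4000). Fitness is a variant's read proportion after selection over that before, normalised to wild type.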
In the case of A111C C150A C169A, the reverse-splicing fitness turned out to be 0.0113.
Take A111C A145G C169G U176A: the reverse-splicing fitness was found to be 0.0283.
Then A111C A145G C169G U176G, with 0.00716; and A111C A145G C169G U176C, with 0.0392.
A111C A145U C150G U176G: the reverse-splicing fitness turned out to be 0.022.
For the variant A111C A145U C150G U176C, the reverse-splicing fitness was determined as 0.119.
As for A111C A145U C150G U176A, the reverse-splicing fitness is 0.0925.
Then A111C A145C C150G C169G, with 0.0102.
Consider A111C A145C C150G C169A, for which the reverse-splicing fitness was 0.00983.
On to A111C A145C C150G C169U, for which the reverse-splicing fitness is 0.018.
On to A111C A145G C150A U176C, for which the reverse-splicing fitness is 0.168.
In the case of A111C A145G C150A U176G, the reverse-splicing fitness turned out to be 0.058.
Turning to A111C A145G C150A U176A, the reverse-splicing fitness came to 0.146.
Consider A111G A120C A145C C150U C169U U176A, for which the reverse-splicing fitness was determined as 0.0273.
The result for A111G A120C A145C C150U C169U U176G reads 0.00415.
Consider A111G A120C A145C C150U C169U U176C, for which the reverse-splicing fitness came to 0.0214.
On to A111C A145G C150A C169A U176G, for which the reverse-splicing fitness came out at 0.00852.
As to A111C A145G C150A C169A U176A, the reverse-splicing fitness worked out at 0.0169.
With A111C A145G C150A C169A U176C, the reverse-splicing fitness was 0.0182.
On to A111C U176G, for which the reverse-splicing fitness stood at 0.202.
Turning to A111C U176C, the reverse-splicing fitness was 0.38.
For the variant A111C U176A, the reverse-splicing fitness turned out to be 0.368.
Then A111C A120U U176A, with 0.22.
With A111C A120U U176G, the reverse-splicing fitness was 0.0937.
As for A111C A120U U176C, the reverse-splicing fitness is 0.257.
As for A111C C169A U176A, the reverse-splicing fitness came out at 0.0188.
With A111C C169A U176G, the reverse-splicing fitness came out at 0.00548.
With A111C C169A U176C, the reverse-splicing fitness was 0.0285.
Turning to A111C C150A, the reverse-splicing fitness came out at 0.303.
Then A111C C150U, with 0.709; and A111C C150G, with 0.185; and A111C C150U C169G U176G, with 0.0072.
In the case of A111C C150U C169G U176C, the reverse-splicing fitness worked out at 0.0234.
Then A111C C150U C169G U176A, with 0.014.
In the case of A111C A145U C150G, the reverse-splicing fitness was 0.219.
The result for A111C A145U C150A reads 0.286.
Turning to A111C A145U C150U, the reverse-splicing fitness turned out to be 0.731.
As for A111G A120C A145C C150A C169A U176G, the reverse-splicing fitness was found to be 0.00443.
Then A111G A120C A145C C150A C169A U176C, with 0.0045.
In the case of A111G A120C A145C C150A C169A U176A, the reverse-splicing fitness was found to be 0.00728.
With A111C A145C, the reverse-splicing fitness was determined as 0.768.
As for A111C A145G, the reverse-splicing fitness was determined as 0.83.
Then A111C A145U, with 0.839; and A111C C150G C169G U176A, with 0.00634; and A111C C150G C169G U176G, with 0.00532.
Take A111C C150G C169G U176C: the reverse-splicing fitness was 0.00414.
The result for A111C A145G C150U C169G U176G reads 0.00741.
Consider A111C A145G C150U C169G U176C, for which the reverse-splicing fitness was 0.021.
With A111C A145G C150U C169G U176A, the reverse-splicing fitness is 0.0138.
With A111C C150U U176A, the reverse-splicing fitness came to 0.339.
Then A111C C150U U176C, with 0.388.
On to A111C C150U U176G, for which the reverse-splicing fitness came out at 0.138.
For the variant A111C A145G C169A U176C, the reverse-splicing fitness came to 0.0307.
Then A111C A145G C169A U176A, with 0.0288; and A111C A145G C169A U176G, with 0.0065; and A111G A120C A145C C150U C169A, with 0.00825.
The result for A111G A120C A145C C150U C169G reads 0.00938; that for A111G A120C A145C C150U C169U, 0.0786.
With A111C A145G C150U C169A U176C, the reverse-splicing fitness came out at 0.0152.
As for A111C A145G C150U C169A U176G, the reverse-splicing fitness amounted to 0.00725.
With A111C A145G C150U C169A U176A, the reverse-splicing fitness came to 0.0141.
Regarding A111C A145G C150A C169U U176C, the reverse-splicing fitness was 0.019.
A111C A145G C150A C169U U176G: the reverse-splicing fitness stood at 0.00843.
The result for A111C A145G C150A C169U U176A reads 0.0185; that for A111C A145U C150U C169U U176C, 0.0241; that for A111C A145U C150U C169U U176G, 0.00764.
Regarding A111C A145U C150U C169U U176A, the reverse-splicing fitness was 0.0264.
With A111G, the reverse-splicing fitness is 1.01.
As to A111C A145U C150A C169G U176A, the reverse-splicing fitness turned out to be 0.0133.
The result for A111C A145U C150A C169G U176C reads 0.0203; that for A111C A145U C150A C169G U176G, 0.00765.
Regarding A111C A120U C169G U176G, the reverse-splicing fitness worked out at 0.00154.
Regarding A111C A120U C169G U176C, the reverse-splicing fitness worked out at 0.00999.
Take A111C A120U C169G U176A: the reverse-splicing fitness was 0.00529.
The result for A111G A120C A145C C150G C169U U176A reads 0.00771; that for A111G A120C A145C C150G C169U U176G, 0.0038.
Turning to A111G A120C A145C C150G C169U U176C, the reverse-splicing fitness worked out at 0.0127.
In the case of A111G A120C A145C U176C, the reverse-splicing fitness is 0.419.
For the variant A111G A120C A145C U176G, the reverse-splicing fitness is 0.129.
Turning to A111G A120C A145C U176A, the reverse-splicing fitness came out at 0.42.
Regarding A111C A145U C169U U176C, the reverse-splicing fitness came out at 0.0282.
For the variant A111C A145U C169U U176A, the reverse-splicing fitness was found to be 0.0258.
Regarding A111C A145U C169U U176G, the reverse-splicing fitness was determined as 0.00798.
Then A111C C169U, with 0.128.

Values taken from the RNAGym collection of RNA variant scans (doi:10.1093/molbev/msab373).
